For assay [1], the target named is T1, recombinant human integrin-αvβ1 (human, UniProt P06756 31-992; P05556 21-728, limits assumed).
T1 construct: also called Recombinant Human Integrins
The experiment in a line: IgG titration on recombinant human integrin αvβ1, one site-total fit; assay format not stated. The arrangement: Bmax: unit not given here.

In assay [2] the target is T2, recombinant mouse integrin-αvβ1 (mouse, UniProt P43406 31-988; P09055 21-728, limits assumed).
T2 construct: also called Recombinant Mouse Integrins
T2 sequence (P43406 31-988 limits assumed, chain 1 of 2): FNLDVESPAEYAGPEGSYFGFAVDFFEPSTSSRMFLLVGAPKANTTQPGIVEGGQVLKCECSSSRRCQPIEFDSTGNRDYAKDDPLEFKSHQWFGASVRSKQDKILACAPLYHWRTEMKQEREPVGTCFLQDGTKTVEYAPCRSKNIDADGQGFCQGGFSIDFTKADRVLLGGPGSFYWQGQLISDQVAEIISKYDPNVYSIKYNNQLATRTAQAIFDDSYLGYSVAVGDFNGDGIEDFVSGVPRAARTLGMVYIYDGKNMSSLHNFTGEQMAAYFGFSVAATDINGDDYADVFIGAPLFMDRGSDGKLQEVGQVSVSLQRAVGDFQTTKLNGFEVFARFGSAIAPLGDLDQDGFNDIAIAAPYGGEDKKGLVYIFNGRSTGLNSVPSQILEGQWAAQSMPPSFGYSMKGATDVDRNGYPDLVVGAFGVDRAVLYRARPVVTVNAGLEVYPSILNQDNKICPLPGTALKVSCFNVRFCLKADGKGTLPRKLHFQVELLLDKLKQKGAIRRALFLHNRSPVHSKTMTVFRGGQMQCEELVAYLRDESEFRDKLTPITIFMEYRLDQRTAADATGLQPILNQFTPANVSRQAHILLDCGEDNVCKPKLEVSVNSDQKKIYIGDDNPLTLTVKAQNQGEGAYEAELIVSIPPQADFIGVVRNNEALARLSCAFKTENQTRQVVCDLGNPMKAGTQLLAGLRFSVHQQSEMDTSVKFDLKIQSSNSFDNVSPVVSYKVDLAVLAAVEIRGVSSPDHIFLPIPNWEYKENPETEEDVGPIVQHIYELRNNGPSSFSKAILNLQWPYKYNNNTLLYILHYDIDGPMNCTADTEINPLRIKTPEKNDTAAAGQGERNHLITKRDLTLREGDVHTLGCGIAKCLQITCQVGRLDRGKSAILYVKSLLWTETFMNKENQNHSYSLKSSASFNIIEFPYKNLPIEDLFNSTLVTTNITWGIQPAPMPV
T2 sequence (P09055 21-728 limits assumed, chain 2 of 2): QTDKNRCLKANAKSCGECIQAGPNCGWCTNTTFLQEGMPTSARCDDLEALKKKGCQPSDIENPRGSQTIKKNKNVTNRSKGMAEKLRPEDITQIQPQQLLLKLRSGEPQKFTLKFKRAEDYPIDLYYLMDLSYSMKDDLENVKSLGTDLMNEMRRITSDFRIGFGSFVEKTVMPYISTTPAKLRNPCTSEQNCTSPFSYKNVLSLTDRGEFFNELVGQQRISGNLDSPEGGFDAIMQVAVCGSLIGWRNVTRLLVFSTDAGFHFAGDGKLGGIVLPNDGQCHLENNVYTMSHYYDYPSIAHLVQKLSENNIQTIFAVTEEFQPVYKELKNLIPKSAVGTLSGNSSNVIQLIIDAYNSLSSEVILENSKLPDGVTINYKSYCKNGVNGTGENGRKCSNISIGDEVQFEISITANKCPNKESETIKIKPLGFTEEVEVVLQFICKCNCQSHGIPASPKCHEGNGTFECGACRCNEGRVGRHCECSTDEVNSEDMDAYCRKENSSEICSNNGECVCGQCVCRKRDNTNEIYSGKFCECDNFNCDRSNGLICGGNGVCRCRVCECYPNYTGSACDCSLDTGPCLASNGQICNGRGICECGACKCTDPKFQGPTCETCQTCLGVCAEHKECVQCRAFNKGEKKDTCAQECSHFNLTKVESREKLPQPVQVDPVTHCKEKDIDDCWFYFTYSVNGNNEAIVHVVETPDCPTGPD
Kind of assay: IgG titration on recombinant mouse integrin αvβ1, one site-total fit; assay format not stated.

For four molecules, Bmax and Kd results are on record in patent US20240158510A1 (GOVERNING COUNCIL OF THE UNIVERSITY OF TORONTO, published 2024).

One may read the Kd as the equilibrium constant for the complex coming apart.

T1 sequence (P06756 31-992 limits assumed, chain 1 of 2): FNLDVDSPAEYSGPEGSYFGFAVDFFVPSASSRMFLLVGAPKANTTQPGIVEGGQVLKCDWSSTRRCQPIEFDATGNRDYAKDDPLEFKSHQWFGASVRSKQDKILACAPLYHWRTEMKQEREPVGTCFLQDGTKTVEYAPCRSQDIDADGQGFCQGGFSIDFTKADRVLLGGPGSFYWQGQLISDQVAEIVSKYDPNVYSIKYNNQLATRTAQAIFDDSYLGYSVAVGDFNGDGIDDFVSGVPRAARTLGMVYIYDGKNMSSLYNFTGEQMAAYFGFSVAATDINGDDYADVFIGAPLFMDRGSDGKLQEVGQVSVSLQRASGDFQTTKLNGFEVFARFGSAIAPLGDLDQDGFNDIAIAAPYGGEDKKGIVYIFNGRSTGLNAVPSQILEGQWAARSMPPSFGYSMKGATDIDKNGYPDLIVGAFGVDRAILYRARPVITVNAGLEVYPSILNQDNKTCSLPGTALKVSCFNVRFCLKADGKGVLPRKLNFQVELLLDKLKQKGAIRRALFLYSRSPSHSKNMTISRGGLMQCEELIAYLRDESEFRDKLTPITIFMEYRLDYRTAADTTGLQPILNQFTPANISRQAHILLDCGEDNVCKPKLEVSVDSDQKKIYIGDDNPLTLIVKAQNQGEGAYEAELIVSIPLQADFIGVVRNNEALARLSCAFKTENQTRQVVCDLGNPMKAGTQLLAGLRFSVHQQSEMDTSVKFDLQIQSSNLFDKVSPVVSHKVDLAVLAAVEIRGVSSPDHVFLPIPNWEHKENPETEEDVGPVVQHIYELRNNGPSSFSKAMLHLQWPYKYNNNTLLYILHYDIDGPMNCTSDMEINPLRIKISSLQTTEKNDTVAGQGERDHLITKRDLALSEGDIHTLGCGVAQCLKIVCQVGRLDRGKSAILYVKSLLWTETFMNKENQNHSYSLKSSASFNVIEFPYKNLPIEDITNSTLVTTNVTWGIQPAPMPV
T1 sequence (P05556 21-728 limits assumed, chain 2 of 2): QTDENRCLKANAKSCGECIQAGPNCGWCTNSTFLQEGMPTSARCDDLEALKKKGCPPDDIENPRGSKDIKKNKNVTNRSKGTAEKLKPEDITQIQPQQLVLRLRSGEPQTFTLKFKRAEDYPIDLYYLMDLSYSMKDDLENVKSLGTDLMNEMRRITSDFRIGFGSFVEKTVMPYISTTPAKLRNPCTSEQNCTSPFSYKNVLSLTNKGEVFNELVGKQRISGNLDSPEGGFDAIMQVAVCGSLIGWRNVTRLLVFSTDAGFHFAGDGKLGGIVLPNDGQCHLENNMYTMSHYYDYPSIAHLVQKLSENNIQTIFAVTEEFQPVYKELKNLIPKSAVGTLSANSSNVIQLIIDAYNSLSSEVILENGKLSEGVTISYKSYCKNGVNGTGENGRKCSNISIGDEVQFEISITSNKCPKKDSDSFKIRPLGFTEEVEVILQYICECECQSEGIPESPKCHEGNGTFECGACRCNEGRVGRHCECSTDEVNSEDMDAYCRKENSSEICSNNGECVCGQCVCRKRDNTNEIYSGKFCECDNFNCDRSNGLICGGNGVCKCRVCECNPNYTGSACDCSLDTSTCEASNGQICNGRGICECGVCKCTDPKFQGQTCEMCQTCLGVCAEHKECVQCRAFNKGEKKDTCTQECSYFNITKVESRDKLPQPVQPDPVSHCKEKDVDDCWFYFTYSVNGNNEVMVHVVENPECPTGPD

B1: 10404 hG4/hk (antibody, V domains shown)
VH: EVQLVESGGGLVQPGGSLRLSCAASGFNLYSSSIHWVRQAPGKGLEWVAYIYPSYGYTSTYADSVKGRFTISADTSKNTAYLQMNSLRAEDTAVYYCARPAPYYSWYPAMDYWGQGTLVTVSS
VL: DIQMTQSPSSLSASVGDRVTITCRASQSVSSAVAWYQQKPGKAPKLLIYSASSLYSGVPSRFSGSRSGTDFTLTISSLQPEDFATYYCQQASGSPFTFGQGTKVEIKR
notes: the IgG4 constant region used is not specified; not shown: human IgG4 constant region ('hG4')
As to B1, in assay [1], the Bmax turned out to be 0.782 and the Kd amounted to 0.358 nM. In assay [2], the Bmax turned out to be 0.782 and the dissociation constant Kd was found to be 0.358 nM.

B2: 10392 hG4/hk (antibody, human IgG4, V domains shown)
VH: EVQLVESGGGLVQPGGSLRLSCAASGFNIYYSSIHWVRQAPGKGLEWVASISSSSGSTSTYADSVKGRFTISADTSKNTAYLQMNSLRAEDTAVYYCARSYYGGGYPYALDYWGQGTLVTVSS
VL: DIQMTQSPSSLSASVGDRVTITCRASQSVSSAVAWYQQKPGKAPKLLIYSASSLYSGVPSRFSGSRSGTDFTLTISSLQPEDFATYYCQQYFGGLITFGQGTKVEIKR
notes: not shown: human IgG4 constant region ('hG4')
Turning to B2, the Bmax in assay [1] and in assay [2] was 0.85 each time. The Kd in assay [1] and in assay [2] was 0.842 nM throughout.

B3: 10392 hG1 LALA PG/hk (antibody, human IgG1, V domains shown)
VH: EVQLVESGGGLVQPGGSLRLSCAASGFNIYYSSIHWVRQAPGKGLEWVASISSSSGSTSTYADSVKGRFTISADTSKNTAYLQMNSLRAEDTAVYYCARSYYGGGYPYALDYWGQGTLVTVSS
VL: DIQMTQSPSSLSASVGDRVTITCRASQSVSSAVAWYQQKPGKAPKLLIYSASSLYSGVPSRFSGSRSGTDFTLTISSLQPEDFATYYCQQYFGGLITFGQGTKVEIKR
notes: not shown: human IgG1 constant region with 'LALA PG' changes
For the molecule B3, in assay [1], the Bmax turned out to be 0.555 and the equilibrium dissociation constant (Kd) was 0.411 nM. Besides, in assay [2], the Bmax was determined as 0.555 and the dissociation constant Kd is 0.411 nM.

B4: 10404 hG1 LALA PG/hk (antibody, V domains shown)
VH: EVQLVESGGGLVQPGGSLRLSCAASGFNLYSSSIHWVRQAPGKGLEWVAYIYPSYGYTSTYADSVKGRFTISADTSKNTAYLQMNSLRAEDTAVYYCARPAPYYSWYPAMDYWGQGTLVTVSS
VL: DIQMTQSPSSLSASVGDRVTITCRASQSVSSAVAWYQQKPGKAPKLLIYSASSLYSGVPSRFSGSRSGTDFTLTISSLQPEDFATYYCQQASGSPFTFGQGTKVEIKR
notes: as for B3
In the case of B4, the Bmax in assay [1] and in assay [2] was 1.09 throughout. Moreover, the dissociation constant (Kd) in assay [1] and in assay [2] was 0.244 nM each time.
